PMC8808070 (The Journal of Biological Chemistry, 2021)
One block for each molecule: values may come before it.

What was measured:
YrhED (ForCE2) = target: T1, YrhED (ForCE2) (Bacillus subtilis, UniProt Q795Y4); experiment: copurification, HPLC-ECD-MS of lipid extracts; EPR of bound menasemiquinone radical; assay type: binding; conditions: copurified without detergent; menasemiquinone radical seen by EPR
T1 construct: gene fdhE; full-length YrhE with N-terminal 6His tag and TEV site, copurified with untagged YrhD; homologous expression in B. subtilis 168; heterodimer 125 kDa; YrhE ~110 kDa, YrhD 17 kDa
T1 sequence (Q795Y4 1-980): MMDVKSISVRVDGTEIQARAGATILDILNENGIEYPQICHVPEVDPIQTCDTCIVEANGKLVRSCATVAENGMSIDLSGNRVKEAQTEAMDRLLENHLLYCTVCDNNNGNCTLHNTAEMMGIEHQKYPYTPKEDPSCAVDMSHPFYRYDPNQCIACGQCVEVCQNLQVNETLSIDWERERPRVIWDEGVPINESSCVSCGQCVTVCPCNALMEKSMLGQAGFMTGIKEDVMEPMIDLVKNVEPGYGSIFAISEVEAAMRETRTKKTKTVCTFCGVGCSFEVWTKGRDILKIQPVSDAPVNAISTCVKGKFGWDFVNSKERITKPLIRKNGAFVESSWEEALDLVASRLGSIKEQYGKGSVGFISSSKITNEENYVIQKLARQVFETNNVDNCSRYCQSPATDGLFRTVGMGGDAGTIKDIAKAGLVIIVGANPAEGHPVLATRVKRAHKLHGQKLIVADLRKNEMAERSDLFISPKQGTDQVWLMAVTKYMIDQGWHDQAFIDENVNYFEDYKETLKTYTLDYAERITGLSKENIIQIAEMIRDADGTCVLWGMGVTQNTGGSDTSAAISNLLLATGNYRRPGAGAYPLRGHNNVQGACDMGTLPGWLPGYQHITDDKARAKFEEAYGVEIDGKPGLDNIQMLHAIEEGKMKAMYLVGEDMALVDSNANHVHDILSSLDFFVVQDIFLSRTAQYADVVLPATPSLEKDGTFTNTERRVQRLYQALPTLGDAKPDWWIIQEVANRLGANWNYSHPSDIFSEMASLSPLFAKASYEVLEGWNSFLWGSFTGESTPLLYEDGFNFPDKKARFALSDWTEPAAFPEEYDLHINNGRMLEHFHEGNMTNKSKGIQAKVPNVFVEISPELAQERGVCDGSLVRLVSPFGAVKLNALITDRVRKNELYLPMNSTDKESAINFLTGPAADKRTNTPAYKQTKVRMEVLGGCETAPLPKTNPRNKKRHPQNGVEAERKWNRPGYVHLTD
T1 sequence (O05396 1-160 partner): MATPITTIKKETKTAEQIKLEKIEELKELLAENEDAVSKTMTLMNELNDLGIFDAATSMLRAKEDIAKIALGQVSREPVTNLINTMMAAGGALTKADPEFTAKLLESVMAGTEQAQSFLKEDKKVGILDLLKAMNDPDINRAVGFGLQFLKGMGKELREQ

YjgCD (ForCE1) [1] = target: T2, YjgCD (ForCE1) (Bacillus subtilis, UniProt O34720); experiment: as above; assay type: binding; conditions: copurified without detergent; neutral menasemiquinone form seen by EPR at pH 6.0 and 7.5
T2 construct: gene forC; full-length YjgC with N-terminal 6His tag and TEV site, copurified with untagged YjgD; homologous expression in B. subtilis 168; heterodimer 132 kDa; YjgC ~110 kDa, YjgD 21 kDa
T2 sequence (O34720 1-985): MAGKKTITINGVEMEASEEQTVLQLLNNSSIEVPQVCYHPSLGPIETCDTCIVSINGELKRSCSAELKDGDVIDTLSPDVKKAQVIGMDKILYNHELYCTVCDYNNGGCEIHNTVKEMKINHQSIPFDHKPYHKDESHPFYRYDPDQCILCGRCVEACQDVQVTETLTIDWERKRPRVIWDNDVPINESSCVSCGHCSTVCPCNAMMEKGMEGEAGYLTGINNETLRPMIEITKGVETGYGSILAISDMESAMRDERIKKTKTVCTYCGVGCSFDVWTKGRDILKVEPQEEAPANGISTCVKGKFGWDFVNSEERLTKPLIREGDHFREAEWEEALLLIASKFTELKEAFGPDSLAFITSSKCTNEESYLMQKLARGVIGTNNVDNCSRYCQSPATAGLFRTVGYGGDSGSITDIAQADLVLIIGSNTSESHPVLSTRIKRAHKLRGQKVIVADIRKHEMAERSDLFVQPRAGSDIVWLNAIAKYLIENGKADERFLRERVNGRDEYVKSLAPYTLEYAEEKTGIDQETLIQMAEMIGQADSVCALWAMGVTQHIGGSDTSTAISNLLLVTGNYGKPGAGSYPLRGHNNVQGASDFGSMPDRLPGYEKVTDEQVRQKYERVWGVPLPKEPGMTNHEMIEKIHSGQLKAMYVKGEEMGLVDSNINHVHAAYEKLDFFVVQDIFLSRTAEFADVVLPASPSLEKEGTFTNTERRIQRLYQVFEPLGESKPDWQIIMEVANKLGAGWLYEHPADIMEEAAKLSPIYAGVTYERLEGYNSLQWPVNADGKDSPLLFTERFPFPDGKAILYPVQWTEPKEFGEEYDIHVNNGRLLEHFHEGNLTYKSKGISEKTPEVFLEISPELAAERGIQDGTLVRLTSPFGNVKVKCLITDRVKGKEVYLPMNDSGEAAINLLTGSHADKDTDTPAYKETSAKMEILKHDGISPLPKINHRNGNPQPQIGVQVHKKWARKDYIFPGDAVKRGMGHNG
T2 sequence (O34681 1-186 partner): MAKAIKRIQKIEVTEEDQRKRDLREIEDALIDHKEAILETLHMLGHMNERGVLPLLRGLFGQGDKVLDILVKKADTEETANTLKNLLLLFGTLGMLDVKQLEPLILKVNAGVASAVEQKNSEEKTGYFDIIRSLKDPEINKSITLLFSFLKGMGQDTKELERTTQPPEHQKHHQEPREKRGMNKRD

YjgCD (ForCE1) [2] = target: T2, YjgCD (ForCE1); experiment: copurification, HPLC-ECD-MS of lipid extracts; assay type: binding; conditions: copurified without detergent, minor species
purified protein [3] = substrate: O=CO; experiment: purified protein; conditions: anaerobic
purified protein [4] = substrate: CC1=CC(=O)c2ccccc2C1=O; experiment: purified protein; assay type: biochemical, Bacillus subtilis; conditions: 50 mM sodium formate as electron donor, 25 mM CHES pH 9, room temperature, anaerobic
[5] = benzyl viologen as electron acceptor (17.5 mM), 25 mM CHES pH 10, room temperature, pH 10.0
[6] = benzyl viologen as electron acceptor (1.75 mM), 25 mM CHES pH 8.6, room temperature, pH 8.6

ForCE2-MK-7 ratio (YrhED (ForCE2)): 1:1.63
ForCE1-MK-7 ratio (YjgCD (ForCE1) [1]): 1:0.87
Molecule: CC(C)=CCC/C(C)=C/CC/C(C)=C/CC/C(C)=C/CC/C(C)=C/CC/C(C)=C/CC/C(C)=C/CC1=C(C)C(=O)c2ccccc2C1=O [MK-7]

Molecule: CC(C)=CCC/C(C)=C/CC/C(C)=C/CC/C(C)=C/CC/C(C)=C/CC/C(C)=C/CC/C(C)=C/CC/C(C)=C/CC1=C(C)C(=O)c2ccccc2C1=O [MK-8]
copurification, HPLC-ECD-MS of lipid extracts (YjgCD (ForCE1) [2]): ForCE1 is also able to bind MK-8 at a low but significant ratio

B1: YjgCD (ForCE1) (Bacillus subtilis subsp. subtilis str. 168) (protein)
chain: T2 sequence (O34720 1-985)
notes: full-length YjgC with N-terminal 6His tag and TEV site, copurified with untagged YjgD; homologous expression in B. subtilis 168; heterodimer 132 kDa; YjgC ~110 kDa, YjgD 21 kDa
Km (purified protein [3]; [5]): 5100 ± 900 µM
Vmax (purified protein [3]; [5]): 43.7 µmol/min
kcat (purified protein [3]; [5]): 96.1 s⁻¹
Km (purified protein [4]): 25 ± 3 µM
Vmax (purified protein [4]): 7.5 µmol/min
kcat (purified protein [4]): 16.5 ± 0.6 s⁻¹

B2: YrhED (ForCE2) (Bacillus subtilis subsp. subtilis str. 168) (protein)
chain: T1 sequence (Q795Y4 1-980)
notes: full-length YrhE with N-terminal 6His tag and TEV site, copurified with untagged YrhD; homologous expression in B. subtilis 168; heterodimer 125 kDa; YrhE ~110 kDa, YrhD 17 kDa
Km (purified protein [3]; [6]): 1100 ± 100 µM
Vmax (purified protein [3]; [6]): 26.6 µmol/min
kcat (purified protein [3]; [6]): 55.8 s⁻¹
Km (purified protein [4]): 23 ± 5 µM
Vmax (purified protein [4]): 12.6 µmol/min
kcat (purified protein [4]): 26.4 ± 1.8 s⁻¹
